{"source": "paper PMC9172074", "about": "“A microfluidic paper analytical device using capture aptamers for the detection of PfLDH in blood matrices”", "binders": {"B1": {"name": "rLDH7 (ssDNA)", "DNA": "GCCTGTTGTGAGCCTCCTAACCCAGAATAGGGACTGCTCGGGATTGCGGATGAGTCTGGGTGGGACATGGCATGCTTATTCTTGTCTCCC"}}, "key": {"[1]": {"biological_target": "T1, rPfLDH (recombinant Plasmodium falciparum lactate dehydrogenase) (Plasmodium falciparum, UniProt Q76NM3 1-316)", "assay": "paper capture, Malstat enzyme activity colorimetry; Zone 1, apparent Kd (fit 23.643 ± 10.806); PBS pH 7.4 (10 mM Na2HPO4, 1.8 mM KH2PO4 [printed KH2HPO4], 2.7 mM KCl, 137 mM NaCl), room temperature, 30 min; pL1: 20 mM Tris, 50 mM NaCl, 5 mM KCl, 5 mM MgCl2, 0.01% Tween 20, pH 8.0", "settings": "protein: recombinant; chain copies: 4; label: 5' biotin"}, "[2]": {"biological_target": "T1, rPfLDH (recombinant Plasmodium …)", "assay": "paper capture, Malstat enzyme activity colorimetry; Zone 3, apparent Kd; PBS pH 7.4 (10 mM Na2HPO4, 1.8 mM KH2PO4 [printed KH2HPO4], 2.7 mM KCl, 137 mM NaCl), room temperature, 30 min; pL1: 20 mM Tris, 50 mM NaCl, 5 mM KCl, 5 mM MgCl2, 0.01% Tween 20, pH 8.0", "settings": "protein: recombinant; chain copies: 4; label: 5' biotin"}}}
{"binder": "B1", "values": [{"measurement": "Kd", "setting": "[1]", "result": "24 ± 11", "unit": "nM"}, {"measurement": "Kd", "setting": "[2]", "result": "11.4 ± 5", "unit": "nM"}]}
